For the assay, the target named is Rubisco large subunit CbbL of Cyanobium sp. PCC 7001 (Cyanobium sp. PCC 7001). Briefly: cryo-EM structure; cryo-electron tomography with subtomogram averaging (emClarity) of Rubisco inside isolated native Cyanobium α-carboxysomes in TEMB buffer; 3.8 Å; all Rubiscos and the three concentric layers averaged separately.

What is called stoichiometry N is a count of units in the complex or per binding partner. The substance “Rubisco large subunit CbbL of Cyanobium sp. PCC 7001 (natural protein)” gave a stoichiometry N of 8.

Values taken from paper PMC9314367.
